According to paper PMC6344876:

Assays:
[1] = tested on: eIF2 heterotrimer with eIF2γ-I318M (His-tagged) (Saccharomyces cerevisiae); assay: filter binding; conditions: aminoacylated with Met; Filter binding: 25 mM HEPES-KOH pH 7.6, 2.5 mM Mg(OAc)2, 80 mM KOAc, 2 mM DTT, 0.5 mM GDPNP-Mg2+, 1 nM tRNA, 3.125-200 nM eIF2, 26 C; pull-down: 20 mM Tris-HCl …
[2] = tested on: eIF2 heterotrimer (WT eIF2γ, His-tagged) (Saccharomyces cerevisiae); assay: filter binding; conditions: aminoacylated with Met; Filter binding: 25 mM HEPES-KOH pH 7.6, 2.5 mM Mg(OAc)2, 80 mM KOAc, 2 mM DTT, 0.5 mM GDPNP-Mg2+, 1 nM tRNA, 3.125-200 nM eIF2, 26 C; pull-down: 20 mM Tris-HCl …

Substance: [35S]Met-tRNAiMet (in vitro transcribed)
- Kd [1]: 98 nM
- Kd [2]: 18 nM
